Data from the nanobody polyreactivity screen of Harvey et al. (2022).

Test: yeast display, Sf9 membrane polyspecificity reagent, FACS + sequencing; frameworks hold sequencing errors
Procedure, shortened: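 Polyreactivity labels are assigned by the sorting gate from which each nanobody was recovered. The gates were low and high (top ~1%), set on anti-HA fluorescence for expression and streptavidin fluorescence for reagent binding. Before sorting, galactose-induced (36–48 hours) yeast display cells were stained for 1 hour at 4 °C with 10% biotinylated, detergent-solubilized Sf9 membrane reagent.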

Sequence | polyreactivity (PSR sort gate)
QVQLVESGGGLVQEGGSLRLSCAASGIIFRWYAMGWYRQAPGKERELVAAITSDGNTYYADSVKGRFTISRDNAKNTVYLQMNSLKPVDTAVYYCAARLSYYSRMNYWGQGTQVTVSS | high polyreactivity
QVQLVESGGGLVQAGGSLRLTCAASGIILVAYPMGWYRQAPGKERELVAAITTSGTSTYYADSVKGRFTISRDNAKNTGYVQMNSLKPEDTAVYYCAVRQRYGPARYDYWGQGTQVTVSS | high polyreactivity
QVQLVESGGGLVEAGGSLRLTCAASGIIFYQYAMGWYRQAPGKERELVAAISSRGGSTYYADSVKGRFTISRDNAKNTVYLQMNSLKPEDTAVYYCAAGSTRSTDGYWGQGTQVTVSS | high polyreactivity
QFQLVESGGGLDQAGGSLRLSCAASGLIFYNYDMGWYRQAPGKERELVAAITLDGGITYYADSVKGRFTISRDNAKNTVYLQLNSLKPEDTAVYYCNRQYRLYGGYPSNLYEYWGQGTQVTVSS | high polyreactivity
QVQLVESGGGLVQAGGSLRLSCAASGRTFSYYAMGWYRQAHGKERELVAAITSSGGRTTYADSVKGRFTISRDNAKNTVYLQMNSLKPEDTAVYYCNVVRWTLKYGYWGQGTQVTVSS | high polyreactivity
QVQLQESGGGLVQAGGSLRLSCAASGSIFKVVDMGLYRQAPAKEREFVATIGEGGNTYYADSVKGRFTISRDNAKNTVYLQMNSLKTEDTAVYFYAVVLGTSYRYTYWGQGTKVTVSS | low polyreactivity
QVQLQESGGGLVQAGGSLRLSCAASGTITVLYKMGWFRQAPGKEREFVASINYGTSTYYADSVKGRFTVSRDSAKNSVYLQMNSLKPEDTAVYYCAAAYRWQDVYRYWGQGTQVTVSS | low polyreactivity
QVQLVESGGGLVQAGGSLRLSCAASGSTFADNAMGWYRQAPGKERELVASISSSATSTYYADSVKGRFTISRDNAKNTVYLQMNSLKPEDSAVYYCSKGRPWYRGDFWGQGTQVTVSS | low polyreactivity
QVQLVESGGGLVQAGGSLRLSCAASGRTFGYYAMGWYRQAPGKERELVAAITLSGGSTYYADSVKGRFTISRDNAKNTVYLQMNSLKPEDTAVYYCAAKWWHFYPYDYWGQGTQVTVSS | high polyreactivity
QVQLVESGGGLVQAGGSLRLSCAASGSIFVRNVMGWYRQAPGKERELVAGISWNGGSTFYADSVKGRFTISRDNAKNTVYLQMNSLKPEDTAVDYCATPYGRHGWFYLYDYWGQGTQVTVSS | low polyreactivity
QVQLVESGGGLVQAGGSLRLSCAASGSIFYWNAMGWYRQAPGKDREFVAAISRSGGSTYYADSVKGRFTISRDNGKNTVYLQMYSLKPEDTAVYFCAADVFYFTYDYWGQCTQVTVSS | low polyreactivity
QVQLVESGGGLVQAGGSLRLSCAASGSIIYNNAMGWYRQAPGKERELVAAIRSTGTRTYYADSVKGRFTISRDNAKNTVYLQMNSLKPEDTAVYYCAVGDYGLWSYVYWGQGTQVTVSS | low polyreactivity
QVQLVESGGGLVQAGGSLRLSCAASGIIFLSYAMGWYRQAPGKERELVATITRSGGSTYYADSVEGRFTISRDNAKNTVYLQMNSLKPEDTAVYYCARYWRTSGVRMDYWGQGTQVTVSS | high polyreactivity
QVQLVESGGRLVQAGGSLRLSCAASGFTFGENAMGWYRQAPGKERELVAAITSGDGTSYADSVKGRFTISRDNAKNTVYLQMNSLKPEDTAVYYCAADGGDELYYSTYDYWGQGTQVTVSS | low polyreactivity
QVQLVESGGGLVQAGGSLRLSCAASGRIFWSYDMGWYRQAPGKERELVASITSDGSTNYADSVKGRFTISRDNAKNTVYLQMNSLKPEDTAVYYCAARPYQYDPFAQGDGGKYDYWGQGTQVTVSS | low polyreactivity
QVQLVESGGGLVQAGGSLRLSCAASGSIFWKNAMGWYRQAPGKERELVAAITRRGGSTYYADSVKGRFTISRDNAKNTVYLQMNSLKPEDTAVYYCAATGGAPYKIEWGQGTQVTVSS | low polyreactivity
QVQLVESGGGLVQAGGSLRLSCAASGSTFDYYTMGWYRQAPGKERELVAAITSGGSTNYADSVKGRFTISRDNAKNTVYLQMNSLKPEDTAVYYCAADEWYNNYNCTTYGPEYDSWGQGTQVTVSS | low polyreactivity
